Results published in PMC6444176 (Biochemistry and Biophysics Reports, 2019).

Target: the molecule itself
Test: SEC

B1: His-MBP-VWA (hCLCA1 von Willebrand factor type A domain construct, amino acids 240-544) (domain or fragment, human, UniProt A8K7I4 240-544, looked up)
chain: AQHVDSIVEFCTEQNHNKEAPNKQNQKCNLRSTWEVIRDSEDFKKTTPMTTQPPNPTFSLLQIGQRIVCLVLDKSGSMATGNRLNRLNQAGQLFLLQTVELGSWVGMVTFDSAAHVQNELIQINSGSDRDTLAKRLPAAASGGTSICSGLRSAFTVIRKKYPTDGSEIVLLTDGEDNTISGCFNEVKQSGAIIHTVALGPSAAQELEELSKMTGGLQTYASDQVQNNGLIDAFGALSSGNGAVSQRSIQLESKGLTLQNSQWMNGTVIVDSTVGKDTLFLITWTMQPPQILLWDPSGQKQGGFVV
  stoichiometry N: 2
